Assay results from US20220175942A1 (published 2022).
Like-named read-outs stand apart in the source and are kept apart here.

B1: P546_AMBCA (other)
chain: ENTQQEEEDYDYGTDTCPFPVLANKTNKAKFVGCHQKCNGGDQKLTDGTACYVVERKVWDRMTPMLWYSCPLGECKNGVCEDLRKKEECRKGNGEEK
B2: P974_AMBCA (other)
chain: ENTQQEEQDYDYGTDTCPFPVLANKTNKAKFVGCHQKCNGGDQKLTDGTACYVVERKVWDRMTPMLWYECPLGECKNGVCEDLRKKEDCRKGNGEEK
B3: P672_RHIPU (other)
chain: VCEVSEQEGVGEDNATEDEDYEDFFKPVTCYFANSTVGPLRPPNCTVVCTNNTAWWNDTKSDGGHCYSEYRPEKRTHSREIYNCTIGVCGNGTCIANHTYADCW
B4: CCL22_HUMAN (ligand)
chain: GPYGANMEDSVCCRDYVRYRLPLRVVKHFYWTSDSCPRPGVVLLTFRDKEICADPRVPWVKMILNKLSQ
B5: P985_AMBPA (other)
chain: DEESEELGASTDVDYEELDANCTCPAPALTSTRNNKHYPLGCIYNCSSYNCTIPDGTPCYVLTLGEVKEHLQIGSTVPNCTCGLCRNGTCVSNGTVEECFAVEEIEET
B6: P1156_IXORI (other)
chain: ADDDNELFTVQYCGMNCTKDEGGTWTGCTGKKEGCKCYHESGKNYGLCLSTEYTDFSQYGNPSDSEIEAAKPKRSDTLSH
B7: CCL18_HUMAN (ligand)
chain: AQVGTNKELCCLVYTSWQIPQKFIVDYSETSPQCPKPGVILLTKRGRQICADPNKKWVQKYISDLKLNA
B8: P943_IXORI (other)
chain: RSKQPTASQSSKNSIKAEFCDTNCTQGTNGAWSGCSEGCFCVHVGNNTKGRCMKLSSDYDYTTQ
B9: CCL4_HUMAN (ligand)
chain: APMGSDPPTACCFSYTARKLPRNFVVDYYETSSLCSQPAVVFQTKRSKQVCADPSESWVQEYVYDLELN
B10: P467_RHIPU (other)
chain: AEKSLDSDSSGEDYELWTQGCPFLVAENRTGFGTTVSCQHNCNGAIEKVPEGEPCYTIGEDGLGRMKLNLPYNCSLGECSGGVCVPNGRSDVCFKRTWEENNKAMA
B11: CCL25_HUMAN (ligand)
chain: QGVFEDCCLAYHYPIGWAVLRRAWTYRIQEVSGSCNLPAAIFYLPKRHRKVCGNPKSREVQRAMKLLDARNKVFAKLHHNTQTFQAGPHAVKKLSSGNSKLSSSKFSNPISSSKRNVSLLISANSGL
B12: CCL3_HUMAN (ligand)
chain: SLAADTPTACCFSYTSRQIPQNFIADYFETSSQCSKPGVIFLTKRSRQVCADPSEEWVQKYVSDLELSA
B13: P991_AMBCA (other)
chain: ENGEGTTQPDYDNSTDYYNYEDFKCTCPAPHLNNTNGTVMKPIGCYYTCNVTRCTAPDTYPCYNLTEHQAKNLTTSPTTLCAVGNCDHGICVPNGTKELCFKAPNLEE
B14: P1182_AMBMA (other)
chain: EPKDDNDYGGGCPFVVLGNGTHAKPAGCSHLCNGAPETLDNIECYNVTEEVAKRMTPGIPYACWLGWCNKGECKRGNRTEVCYRGSEEE

Legend:
[1] = target: CCL16_HUMAN; assay: BLI
[2] = target: CCL3L1_HUMAN; assay: BLI
[3] = target: CCL4L1_HUMAN; assay: BLI
[4] = target: CCL7_HUMAN; assay: BLI
[5] = target: CCL14_HUMAN; assay: BLI
[6] = target: CCL13_HUMAN; assay: BLI
[7] = target: B4; assay: BLI
[8] = target: CCL2_HUMAN (human, UniProt P13500 24-99); assay: BLI
[9] = target: T1, CCL17_HUMAN (human, UniProt Q92583 24-94); assay: BLI
T1 chain: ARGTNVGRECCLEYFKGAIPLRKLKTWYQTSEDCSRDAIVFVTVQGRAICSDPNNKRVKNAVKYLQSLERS

[10] = target: CCL11_HUMAN (human, UniProt P51671 24-97); assay: BLI
[11] = target: B12; assay: BLI
[12] = target: T2, CCL1_HUMAN (human, UniProt P22362 24-96); assay: BLI
T2 chain: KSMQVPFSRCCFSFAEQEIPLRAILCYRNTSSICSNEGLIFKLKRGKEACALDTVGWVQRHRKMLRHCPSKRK

[13] = target: B7; assay: BLI
[14] = target: T3, CCL4 (human, UniProt P13236 24-92); assay: BLI
T3 chain: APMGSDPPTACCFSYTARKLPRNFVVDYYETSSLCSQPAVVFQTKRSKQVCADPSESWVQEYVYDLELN

[15] = target: T4, CCL8_HUMAN (human, UniProt P80075 24-99); assay: BLI
T4 chain: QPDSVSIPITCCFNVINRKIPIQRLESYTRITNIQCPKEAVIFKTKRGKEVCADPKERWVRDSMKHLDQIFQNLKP

[16] = target: CCL23_HUMAN; assay: BLI
[17] = target: T5, CCL15_HUMAN (human, UniProt Q16663 22-113); assay: BLI
T5 chain: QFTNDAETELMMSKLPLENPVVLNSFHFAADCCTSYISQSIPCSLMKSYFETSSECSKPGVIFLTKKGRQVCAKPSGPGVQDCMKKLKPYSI

[18] = target: EVASIN4; assay: -; previously described evasin
[19] = target: CCL24_HUMAN; assay: BLI
[20] = target: T6, CCL5_HUMAN (human, UniProt P13501 24-91); assay: BLI
T6 chain: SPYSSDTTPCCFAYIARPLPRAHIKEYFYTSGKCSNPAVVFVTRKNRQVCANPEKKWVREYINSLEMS

[21] = target: CXCL3_HUMAN; assay: BLI
[22] = target: CXCL1_HUMAN; assay: BLI
[23] = target: CXCL8_HUMAN (human, UniProt P10145 28-99); assay: BLI
[24] = target: EVASIN1; assay: -; previously described evasin
[25] = target: EVASIN4; assay: -; previously described evasin; remark: listed apart in the source
[26] = target: CXCL3_HUMAN; assay: BLI; remark: listed apart in the source
[27] = target: CXCL1_HUMAN; assay: BLI; remark: listed apart in the source
[28] = target: CCL27_HUMAN; assay: BLI
[29] = target: T7, CCL19_HUMAN (human, UniProt Q99731 22-98); assay: BLI
T7 chain: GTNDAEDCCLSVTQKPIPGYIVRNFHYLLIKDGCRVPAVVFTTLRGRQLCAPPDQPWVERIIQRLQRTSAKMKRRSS

CCL11_HUMAN, sequence (P51671 24-97): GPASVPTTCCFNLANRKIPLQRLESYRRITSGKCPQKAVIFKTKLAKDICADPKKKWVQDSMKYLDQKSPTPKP
CCL2_HUMAN, sequence (P13500 24-99): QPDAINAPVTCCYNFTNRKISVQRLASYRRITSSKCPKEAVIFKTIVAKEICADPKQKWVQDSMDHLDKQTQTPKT
CXCL8_HUMAN, sequence (P10145 28-99): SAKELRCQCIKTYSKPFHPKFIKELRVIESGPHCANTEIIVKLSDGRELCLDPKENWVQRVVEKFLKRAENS

Binder | Kd [1] | Kd [2] | Kd [3] | Kd [4] | Kd [5] | Kd [6] | Kd [8] | Kd [10] | Kd [11] | Kd [12] | Kd [13] | Kd [14] | Kd [15] | other results
B1 | 6.67 nM | 14.7 nM | 8.87 nM | 90 nM | 28.2 nM | 13.1 nM | 83 nM | 8.7 nM | 14.5 nM | 160 nM | 16 nM | 26.6 nM | 1.29 nM | Kd [7]: 27 nM; Kd [9]: 70 nM
B2 | 11 nM | 13.1 nM | 23.2 nM | 41.2 nM | 49.1 nM | 22.9 nM | 93 nM | 17 nM | 7.97 nM | 70.5 nM | 0.683 nM | 30.2 nM | 2.58 nM | Kd [7]: 16.8 nM; Kd [9]: 70.6 nM
B3 | 3.29 nM | 2.7 nM |  | 16.1 nM | 5.5 nM |  | 9.09 nM |  | 2.6 nM |  |  |  | 3.7 nM | Kd [16]: 10 nM; Kd [17]: 31.5 nM
B4 |  |  |  |  |  |  |  |  |  |  |  |  |  | Kd [18]: 0.43 nM
B5 | 44.8 nM | 45.8 nM | 20.6 nM | 61.4 nM |  | 89 nM | 16.8 nM | 8 nM | 8.9 nM | 8.32 nM | 431 nM | 7.47 nM | 6.53 nM | Kd [19]: 40.8 nM; Kd [20]: 3.52 nM
B6 |  |  |  |  |  |  |  |  |  |  |  |  |  | Kd [21]: 81 nM; Kd [22]: 3.25 nM; Kd [23]: 4.6 nM
B7 |  |  |  |  |  |  |  |  |  |  |  |  |  | Kd [24]: 3 nM; Kd [25]: 0.03 nM
B8 |  |  |  |  |  |  |  |  |  |  |  |  |  | Kd [26]: 270 nM; Kd [27]: 24 nM
B9 |  |  |  |  |  |  |  |  |  |  |  |  |  | Kd [24]: 0.5 nM
B10 | 14.1 nM | 0.524 nM | 4.72 nM | 2.15 nM | 4.13 nM | 2.56 nM | 0.001 nM | 1.4 nM | 0.363 nM | 53.4 nM | 16.6 nM | 13.6 nM | 2.85 nM | Kd [20]: 7.67 nM
B11 |  |  |  |  |  |  |  |  |  |  |  |  |  | Kd [18]: 69.6 nM
B12 |  |  |  |  |  |  |  |  |  |  |  |  |  | Kd [24]: 0.1 nM; Kd [25]: 0.06 nM
B13 | 1.28 nM | 1.4 nM | 0.827 nM | 0.514 nM | 0.43 nM | 0.419 nM | 12.2 nM | 3.43 nM | 1.08 nM |  | 0.209 nM | 5.82 nM | 8.79 nM | Kd [16]: 5.58 nM; Kd [19]: 6.54 nM; Kd [28]: 38.9 nM; Kd [7]: 3.97 nM; Kd [17]: 159 nM; Kd [29]: 14.4 nM; Kd [9]: 7.66 nM; Kd [20]: 1.47 nM
B14 |  | 63.4 nM |  | 29.2 nM |  | 50 nM | 5.39 nM | 56 nM | 9.46 nM | 74 nM |  | 92.4 nM | 28.2 nM | Kd [9]: 33.4 nM
